Assay results as given in patent publication US20240360194A1, “New Peptides as Potent and Selective GIP Receptor Agonists” (Sanofi, priority 2021, published 2024).
Numbered stars: 1 amine (or outer) side, 2 acyl side, 3 side chain; on linkers, the order of the positions; unused ones are H or OH. Square brackets hold non-standard residues; d marks the D form. Side chains are listed from the residue outwards. Ends that are not written are not given here. * marks the point of attachment. C18 diacid = O=C(O)CCCCCCCCCCCCCCCCC(=O)*; γGlu = O=C(O)[C@H](CCC(=O)[*:2])N[*:1]; αMeF = C[C@](N)(Cc1ccccc1)C(=O)O; hLeu = CC(C)CC[C@H](N)C(=O)O; Iva = CC[C@](C)(N)C(=O)O; Abu = CC[C@H](N)C(=O)O; AEEA = NCCOCCOCC(=O)O; Aib = CC(C)(N)C(=O)O

T1: human GIP receptor (human, UniProt P48546 22-466)
T1 sequence (looked up): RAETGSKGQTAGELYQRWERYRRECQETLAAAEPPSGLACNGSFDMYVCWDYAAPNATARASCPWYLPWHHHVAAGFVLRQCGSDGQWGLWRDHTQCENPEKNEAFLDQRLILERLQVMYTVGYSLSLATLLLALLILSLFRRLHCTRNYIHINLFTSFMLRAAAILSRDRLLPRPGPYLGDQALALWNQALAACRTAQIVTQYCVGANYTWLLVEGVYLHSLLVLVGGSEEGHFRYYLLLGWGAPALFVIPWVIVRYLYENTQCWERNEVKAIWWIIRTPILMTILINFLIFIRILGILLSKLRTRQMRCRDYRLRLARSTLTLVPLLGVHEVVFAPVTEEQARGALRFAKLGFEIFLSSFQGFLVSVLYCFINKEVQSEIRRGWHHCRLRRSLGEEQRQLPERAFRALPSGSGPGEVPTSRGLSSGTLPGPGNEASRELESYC

B1: SEQ ID NO: 22 (peptide)
peptide: Y[Aib]EGTFISDLSI[Aib]K([AEEA-AEEA-γGlu-C18 diacid])DR[Aib]HQ[Aib]EFIEWLLAQRPSSGAPPPS-NH2
modifications: N-terminus assumed
SMILES: CC[C@H](C)[C@H](NC(=O)[C@H](Cc1ccccc1)NC(=O)[C@H](CCC(=O)O)NC(=O)C(C)(C)NC(=O)[C@H](CCC(N)=O)NC(=O)[C@H](Cc1c[nH]cn1)NC(=O)C(C)(C)NC(=O)[C@H](CCCNC(=N)N)NC(=O)[C@H](CC(=O)O)NC(=O)[C@H](CCCCNC(=O)COCCOCCNC(=O)COCCOCCNC(=O)CC[C@H](NC(=O)CCCCCCCCCCCCCCCCC(=O)O)C(=O)O)NC(=O)C(C)(C)NC(=O)[C@@H](NC(=O)[C@H](CO)NC(=O)[C@H](CC(C)C)NC(=O)[C@H](CC(=O)O)NC(=O)[C@H](CO)NC(=O)[C@@H](NC(=O)[C@H](Cc1ccccc1)NC(=O)[C@@H](NC(=O)CNC(=O)[C@H](CCC(=O)O)NC(=O)C(C)(C)NC(=O)[C@@H](N)Cc1ccc(O)cc1)[C@@H](C)O)[C@@H](C)CC)[C@@H](C)CC)C(=O)N[C@@H](CCC(=O)O)C(=O)N[C@@H](Cc1c[nH]c2ccccc12)C(=O)N[C@@H](CC(C)C)C(=O)N[C@@H](CC(C)C)C(=O)N[C@@H](C)C(=O)N[C@@H](CCC(N)=O)C(=O)N[C@@H](CCCNC(=N)N)C(=O)N1CCC[C@H]1C(=O)N[C@@H](CO)C(=O)N[C@@H](CO)C(=O)NCC(=O)N[C@@H](C)C(=O)N1CCC[C@H]1C(=O)N1CCC[C@H]1C(=O)N1CCC[C@H]1C(=O)N[C@@H](CO)C(N)=O
notes: Synthetic peptide, 39 residues
B2: SEQ ID NO: 25 (peptide)
peptide: H-Y[Aib]EGT[Abu]ISDLSI[Aib]K([AEEA-AEEA-γGlu-C18 diacid])DRIHQEEFIEWLLAQGPSSGAPPPS-NH2
SMILES: CC[C@H](NC(=O)[C@@H](NC(=O)CNC(=O)[C@H](CCC(=O)O)NC(=O)C(C)(C)NC(=O)[C@@H](N)Cc1ccc(O)cc1)[C@@H](C)O)C(=O)N[C@H](C(=O)N[C@@H](CO)C(=O)N[C@@H](CC(=O)O)C(=O)N[C@@H](CC(C)C)C(=O)N[C@@H](CO)C(=O)N[C@H](C(=O)NC(C)(C)C(=O)N[C@@H](CCCCNC(=O)COCCOCCNC(=O)COCCOCCNC(=O)CC[C@H](NC(=O)CCCCCCCCCCCCCCCCC(=O)O)C(=O)O)C(=O)N[C@@H](CC(=O)O)C(=O)N[C@@H](CCCNC(=N)N)C(=O)N[C@H](C(=O)N[C@@H](Cc1c[nH]cn1)C(=O)N[C@@H](CCC(N)=O)C(=O)N[C@@H](CCC(=O)O)C(=O)N[C@@H](CCC(=O)O)C(=O)N[C@@H](Cc1ccccc1)C(=O)N[C@H](C(=O)N[C@@H](CCC(=O)O)C(=O)N[C@@H](Cc1c[nH]c2ccccc12)C(=O)N[C@@H](CC(C)C)C(=O)N[C@@H](CC(C)C)C(=O)N[C@@H](C)C(=O)N[C@@H](CCC(N)=O)C(=O)NCC(=O)N1CCC[C@H]1C(=O)N[C@@H](CO)C(=O)N[C@@H](CO)C(=O)NCC(=O)N[C@@H](C)C(=O)N1CCC[C@H]1C(=O)N1CCC[C@H]1C(=O)N1CCC[C@H]1C(=O)N[C@@H](CO)C(N)=O)[C@@H](C)CC)[C@@H](C)CC)[C@@H](C)CC)[C@@H](C)CC
notes: as for B1
B3: SEQ ID NO: 28 (peptide)
peptide: Y[Aib]EGTFISDLSI[Aib]K([AEEA-AEEA-γGlu-C18 diacid])DRIHQEEFIEWLLAQEPSSGAPPPS-OH
modifications: N-terminus assumed
SMILES: CC[C@H](C)[C@H](NC(=O)[C@H](Cc1ccccc1)NC(=O)[C@H](CCC(=O)O)NC(=O)[C@H](CCC(=O)O)NC(=O)[C@H](CCC(N)=O)NC(=O)[C@H](Cc1c[nH]cn1)NC(=O)[C@@H](NC(=O)[C@H](CCCNC(=N)N)NC(=O)[C@H](CC(=O)O)NC(=O)[C@H](CCCCNC(=O)COCCOCCNC(=O)COCCOCCNC(=O)CC[C@H](NC(=O)CCCCCCCCCCCCCCCCC(=O)O)C(=O)O)NC(=O)C(C)(C)NC(=O)[C@@H](NC(=O)[C@H](CO)NC(=O)[C@H](CC(C)C)NC(=O)[C@H](CC(=O)O)NC(=O)[C@H](CO)NC(=O)[C@@H](NC(=O)[C@H](Cc1ccccc1)NC(=O)[C@@H](NC(=O)CNC(=O)[C@H](CCC(=O)O)NC(=O)C(C)(C)NC(=O)[C@@H](N)Cc1ccc(O)cc1)[C@@H](C)O)[C@@H](C)CC)[C@@H](C)CC)[C@@H](C)CC)C(=O)N[C@@H](CCC(=O)O)C(=O)N[C@@H](Cc1c[nH]c2ccccc12)C(=O)N[C@@H](CC(C)C)C(=O)N[C@@H](CC(C)C)C(=O)N[C@@H](C)C(=O)N[C@@H](CCC(N)=O)C(=O)N[C@@H](CCC(=O)O)C(=O)N1CCC[C@H]1C(=O)N[C@@H](CO)C(=O)N[C@@H](CO)C(=O)NCC(=O)N[C@@H](C)C(=O)N1CCC[C@H]1C(=O)N1CCC[C@H]1C(=O)N1CCC[C@H]1C(=O)N[C@@H](CO)C(=O)O
notes: Synthetic peptide, 39 residues (Glu at 30)
B4: SEQ ID NO: 32 (peptide)
peptide: H-Y[Aib]EGTFISDLSI[Aib]K([AEEA-AEEA-γGlu-C18 diacid])DRIHQEE[αMeF]IEWLLAQGPSSGAPPPS-NH2
SMILES: CC[C@H](C)[C@H](NC(=O)[C@H](CCCNC(=N)N)NC(=O)[C@H](CC(=O)O)NC(=O)[C@H](CCCCNC(=O)COCCOCCNC(=O)COCCOCCNC(=O)CC[C@H](NC(=O)CCCCCCCCCCCCCCCCC(=O)O)C(=O)O)NC(=O)C(C)(C)NC(=O)[C@@H](NC(=O)[C@H](CO)NC(=O)[C@H](CC(C)C)NC(=O)[C@H](CC(=O)O)NC(=O)[C@H](CO)NC(=O)[C@@H](NC(=O)[C@H](Cc1ccccc1)NC(=O)[C@@H](NC(=O)CNC(=O)[C@H](CCC(=O)O)NC(=O)C(C)(C)NC(=O)[C@@H](N)Cc1ccc(O)cc1)[C@@H](C)O)[C@@H](C)CC)[C@@H](C)CC)C(=O)N[C@@H](Cc1c[nH]cn1)C(=O)N[C@@H](CCC(N)=O)C(=O)N[C@@H](CCC(=O)O)C(=O)N[C@@H](CCC(=O)O)C(=O)N[C@@](C)(Cc1ccccc1)C(=O)N[C@H](C(=O)N[C@@H](CCC(=O)O)C(=O)N[C@@H](Cc1c[nH]c2ccccc12)C(=O)N[C@@H](CC(C)C)C(=O)N[C@@H](CC(C)C)C(=O)N[C@@H](C)C(=O)N[C@@H](CCC(N)=O)C(=O)NCC(=O)N1CCC[C@H]1C(=O)N[C@@H](CO)C(=O)N[C@@H](CO)C(=O)NCC(=O)N[C@@H](C)C(=O)N1CCC[C@H]1C(=O)N1CCC[C@H]1C(=O)N1CCC[C@H]1C(=O)N[C@@H](CO)C(N)=O)[C@@H](C)CC
notes: as for B1
B5: SEQ ID NO: 34 (peptide)
peptide: H-Y[Aib]EGTFISD[hLeu]SI[Aib]K([AEEA-AEEA-γGlu-C18 diacid])DRIHQEEFIEWLLAQGPSSGAPPPS-NH2
SMILES: CC[C@H](C)[C@H](NC(=O)[C@H](Cc1ccccc1)NC(=O)[C@H](CCC(=O)O)NC(=O)[C@H](CCC(=O)O)NC(=O)[C@H](CCC(N)=O)NC(=O)[C@H](Cc1c[nH]cn1)NC(=O)[C@@H](NC(=O)[C@H](CCCNC(=N)N)NC(=O)[C@H](CC(=O)O)NC(=O)[C@H](CCCCNC(=O)COCCOCCNC(=O)COCCOCCNC(=O)CC[C@H](NC(=O)CCCCCCCCCCCCCCCCC(=O)O)C(=O)O)NC(=O)C(C)(C)NC(=O)[C@@H](NC(=O)[C@H](CO)NC(=O)[C@H](CCC(C)C)NC(=O)[C@H](CC(=O)O)NC(=O)[C@H](CO)NC(=O)[C@@H](NC(=O)[C@H](Cc1ccccc1)NC(=O)[C@@H](NC(=O)CNC(=O)[C@H](CCC(=O)O)NC(=O)C(C)(C)NC(=O)[C@@H](N)Cc1ccc(O)cc1)[C@@H](C)O)[C@@H](C)CC)[C@@H](C)CC)[C@@H](C)CC)C(=O)N[C@@H](CCC(=O)O)C(=O)N[C@@H](Cc1c[nH]c2ccccc12)C(=O)N[C@@H](CC(C)C)C(=O)N[C@@H](CC(C)C)C(=O)N[C@@H](C)C(=O)N[C@@H](CCC(N)=O)C(=O)NCC(=O)N1CCC[C@H]1C(=O)N[C@@H](CO)C(=O)N[C@@H](CO)C(=O)NCC(=O)N[C@@H](C)C(=O)N1CCC[C@H]1C(=O)N1CCC[C@H]1C(=O)N1CCC[C@H]1C(=O)N[C@@H](CO)C(N)=O
notes: as for B1

Assays:
human GIP receptor [1] = molecular target: T1, human GIP receptor; test: cell-based or functional assay
human GLP-1 receptor [2] = molecular target: T2, human GLP-1 receptor (human, UniProt P43220 24-463); test: cell-based or functional assay
human GIP receptor [3] = molecular target: T1, human GIP receptor; test: cell-based or functional assay; remark: listed apart in the source
human GLP-1 receptor [4] = molecular target: T2, human GLP-1 receptor; test: displacement of [125I]GLP-1 from HEK-293 membranes expressing hGLP-1R (SPA beads)

Binder | EC50 hGIPR 0% HSA (cAMP, HEK-293) (human GIP receptor [1]) [nM] | EC50 hGIPR 0.1% BSA (cAMP, HEK-293) (human GIP receptor [1]) [nM] | EC50 hGLP-1R 0.1% BSA (cAMP, HEK-293) (human GLP-1 receptor [2]) [nM] | hGIPR EC50 (cAMP, human adipocytes) (human GIP receptor [3]) [nM] | hGIPR Emax (cAMP, human adipocytes) (human GIP receptor [3]) [%] | IC50 (human GLP-1 receptor [4]) [nM]
B1 | 0.00016 | 0.00666 | > 10 | 0.6 | 98 | 221
H-Y[Aib]EGT[Iva]ISDLSI[Aib]K([AEEA-AEEA-γGlu-C18 diacid])DRIHQ[Aib]EFIEWLLAQGPSSGAPPPS-NH2 (Synthetic peptide, 39 residues) [SEQ ID NO: 23] | 0.00027 | 0.0177 | > 10 | 0.2 | 91 | 259
B2 | 0.00028 | 0.0144 | > 10 | 0.2 | 112 | 417
B3 | 0.00073 | 0.0647 | > 10 | 0.5 | 103 | 426
H-Y[Aib]EGTFISDLSI[Aib]K([AEEA-AEEA-γGlu-C18 diacid])DRIHQ[Aib]EFIEW[Iva]LAQGPSSGAPPPS-NH2 (Synthetic peptide, 39 residues) [SEQ ID NO: 31] | 0.00015 | 0.00696 | > 10 | 0.7 | 121 | 292
B4 | 0.00096 | 0.119 | > 10 | 0.6 | 109 | 650
B5 | 0.00022 | 0.0335 | > 10 | 0.5 | 112 | 195
